According to the supplement of paper PMC10724198:
± gives the standard deviation of the averaged measurements.

Experiments:
[1] = test system: Saccharomyces cerevisiae; assay: protein stability index of tFT-peptide fusion (C-terminal peptide) (PSI (0-1 scale)); higher = more stable (slower turnover); conditions: genetic background: wild type; temperature: 30 C
[2] = test system: Saccharomyces cerevisiae; assay: as above
Method: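 MPS profiling in S. cerevisiae of the tFT-X12 degron library: putative degron peptides plus stable controls, 12 aa, fused to the C-terminus of a sfGFP-mCherry timer. Cells are FACS-sorted into 8 mCherry/sfGFP bins and deep-sequenced. PSI runs from 0 (unstable) to 1 (stable). Backgrounds are wild type, das1Δ and doa10Δ at 30 °C, and wild type, das1Δ, cdc34-1 and cdc53-1 at 37 °C; 2-3 technical replicates each.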

[3] = genetic background: cdc34-1, temperature: 37 C
[4] = genetic background: cdc53-1, temperature: 37 C
[5] = genetic background: das1 deletion, temperature: 30 C
[6] = genetic background: das1 deletion, temperature: 37 C
[7] = genetic background: doa10 deletion, temperature: 30 C
[8] = genetic background: wild type, temperature: 30 C
[9] = genetic background: wild type, temperature: 37 C
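Further: PSI is a weighted mean of sequencing reads over stability bins, variants kept only with over 10 reads, mCherry proximal and sfGFP distal, peptide attached via GGGS linker.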

## AWVEVYVISIGV
[1]
  protein stability index: 0.19 ± 0.032
[2]; [3]
  protein stability index: 0.192 ± 0.024
[2]; [4]
  protein stability index: 0.257 ± 0.0074
[2]; [5]
  protein stability index: 0.161 ± 0.022
[2]; [6]
  protein stability index: 0.324 ± 0.012
[2]; [7]
  protein stability index: 0.132 ± 0.0032
[2]; [8]
  protein stability index: 0.153 ± 0.011
[2]; [9]
  protein stability index: 0.2966 ± 0.0016

## CAGLLSVSFWLF
[1]
  protein stability index: 0.499 ± 0.0012
[2]; [3]
  protein stability index: 0.516 ± 0.024
[2]; [4]
  protein stability index: 0.589 ± 0.037
[2]; [5]
  protein stability index: 0.44 ± 0.033
[2]; [6]
  protein stability index: 0.597 ± 0.022
[2]; [7]
  protein stability index: 0.351 ± 0.0039
[2]; [8]
  protein stability index: 0.381 ± 0.017
[2]; [9]
  protein stability index: 0.552 ± 0.0056

## CFATTCLRCKWV
[1]
  protein stability index: 0.484 ± 0.014
[2]; [3]
  protein stability index: 0.692 ± 0.038
[2]; [4]
  protein stability index: 0.738 ± 0.035
[2]; [5]
  protein stability index: 0.645 ± 0.033
[2]; [6]
  protein stability index: 0.739 ± 0.028
[2]; [7]
  protein stability index: 0.425 ± 0.011
[2]; [8]
  protein stability index: 0.459 ± 0.022
[2]; [9]
  protein stability index: 0.631 ± 0.027

## CFCVSVHVWLLM
[1]
  protein stability index: 0.147 ± 0.04
[2]; [3]
  protein stability index: 0.112 ± 0.028
[2]; [4]
  protein stability index: 0.238 ± 0.046
[2]; [5]
  protein stability index: 0.199 ± 0.038
[2]; [6]
  protein stability index: 0.342 ± 0.017
[2]; [7]
  protein stability index: 0.0493 ± 0.017
[2]; [8]
  protein stability index: 0.069 ± 0.018
[2]; [9]
  protein stability index: 0.105 ± 0.017

## CFFLLLRVSLFP
[1]
  protein stability index: 0.239 ± 0.028
[2]; [3]
  protein stability index: 0.08149 ± 0.00038
[2]; [4]
  protein stability index: 0.112 ± 0.024
[2]; [5]
  protein stability index: 0.143 ± 0.032
[2]; [6]
  protein stability index: 0.257 ± 0.0087
[2]; [7]
  protein stability index: 0.142 ± 0.0027
[2]; [8]
  protein stability index: 0.145 ± 0.025
[2]; [9]
  protein stability index: 0.218 ± 0.011

## CFSLLFYTLSLL
[1]
  protein stability index: 0.351 ± 0.018
[2]; [3]
  protein stability index: 0.47 ± 0.029
[2]; [4]
  protein stability index: 0.499 ± 0.0054
[2]; [5]
  protein stability index: 0.393 ± 0.022
[2]; [6]
  protein stability index: 0.5305 ± 0.0034
[2]; [7]
  protein stability index: 0.2695 ± 0.00095
[2]; [8]
  protein stability index: 0.274 ± 0.021
[2]; [9]
  protein stability index: 0.409 ± 0.0057

## CFVICVCLCFGR
[1]
  protein stability index: 0.35 ± 0.025
[2]; [3]
  protein stability index: 0.229 ± 0.044
[2]; [4]
  protein stability index: 0.3626 ± 0.002
[2]; [5]
  protein stability index: 0.232 ± 0.018
[2]; [6]
  protein stability index: 0.416 ± 0.015
[2]; [7]
  protein stability index: 0.206 ± 0.0033
[2]; [8]
  protein stability index: 0.21 ± 0.026
[2]; [9]
  protein stability index: 0.371 ± 0.0092

## CGSLDLPHQCLL
[1]
  protein stability index: 0.744 ± 0.059
[2]; [3]
  protein stability index: 0.7247 ± 0.0066
[2]; [4]
  protein stability index: 0.7844 ± 0.0062
[2]; [5]
  protein stability index: 0.677 ± 0.0093
[2]; [6]
  protein stability index: 0.7545 ± 0.0062
[2]; [7]
  protein stability index: 0.691 ± 0.048
[2]; [8]
  protein stability index: 0.693 ± 0.01
[2]; [9]
  protein stability index: 0.774 ± 0.0033

## CICAFCSLNLLC
[1]
  protein stability index: 0.435 ± 0.011
[2]; [3]
  protein stability index: 0.695 ± 0.01
[2]; [4]
  protein stability index: 0.774 ± 0.016
[2]; [5]
  protein stability index: 0.61 ± 0.012
[2]; [6]
  protein stability index: 0.765 ± 0.011
[2]; [7]
  protein stability index: 0.289 ± 0.0064
[2]; [8]
  protein stability index: 0.324 ± 0.023
[2]; [9]
  protein stability index: 0.607 ± 0.013

## CIHMNCSMMIIS
[1]
  protein stability index: 0.135 ± 0.0034
[2]; [3]
  protein stability index: 0.0533 ± 0.045
[2]; [4]
  protein stability index: 0.084 ± 0.0027
[2]; [5]
  protein stability index: 0.168 ± 0.0061
[2]; [6]
  protein stability index: 0.0659 ± 0.029
[2]; [7]
  protein stability index: 0.169 ± 0.0045
[2]; [8]
  protein stability index: 0.132 ± 0.036
[2]; [9]
  protein stability index: 0.0482 ± 0.035

## CKGPPVKFIVLM
[1]
  protein stability index: 0.225 ± 0.057
[2]; [3]
  protein stability index: 0.614 ± 0.018
[2]; [4]
  protein stability index: 0.7111 ± 0.0044
[2]; [5]
  protein stability index: 0.597 ± 0.03
[2]; [6]
  protein stability index: 0.7359 ± 0.0039
[2]; [7]
  protein stability index: 0.135 ± 0.0034
[2]; [8]
  protein stability index: 0.147 ± 0.028
[2]; [9]
  protein stability index: 0.243 ± 0.023

## CKYCKCVVLLWS
[1]
  protein stability index: 0.434 ± 0.037
[2]; [3]
  protein stability index: 0.53 ± 0.052
[2]; [4]
  protein stability index: 0.605 ± 0.013
[2]; [5]
  protein stability index: 0.385 ± 0.037
[2]; [6]
  protein stability index: 0.6012 ± 0.00065
[2]; [7]
  protein stability index: 0.2932 ± 0.0013
[2]; [8]
  protein stability index: 0.334 ± 0.034
[2]; [9]
  protein stability index: 0.536 ± 0.01

## CLFFLVYELSIL
[1]
  protein stability index: 0.317 ± 0.021
[2]; [3]
  protein stability index: 0.256 ± 0.017
[2]; [4]
  protein stability index: 0.352 ± 0.048
[2]; [5]
  protein stability index: 0.257 ± 0.023
[2]; [6]
  protein stability index: 0.434 ± 0.016
[2]; [7]
  protein stability index: 0.2162 ± 0.00051
[2]; [8]
  protein stability index: 0.246 ± 0.0069
[2]; [9]
  protein stability index: 0.387 ± 0.0045

## CLQYRACLILLT
[1]
  protein stability index: 0.425 ± 0.0091
[2]; [3]
  protein stability index: 0.406 ± 0.014
[2]; [4]
  protein stability index: 0.3653 ± 0.0014
[2]; [5]
  protein stability index: 0.365 ± 0.015
[2]; [6]
  protein stability index: 0.494 ± 0.0041
[2]; [7]
  protein stability index: 0.456 ± 0.0093
[2]; [8]
  protein stability index: 0.343 ± 0.015
[2]; [9]
  protein stability index: 0.425 ± 0.0086

## CLSGPFRSLAVF
[1]
  protein stability index: 0.425 ± 0.038
[2]; [3]
  protein stability index: 0.545 ± 0.029
[2]; [4]
  protein stability index: 0.6286 ± 0.0025
[2]; [5]
  protein stability index: 0.485 ± 0.031
[2]; [6]
  protein stability index: 0.6326 ± 0.0051
[2]; [7]
  protein stability index: 0.341 ± 0.009
[2]; [8]
  protein stability index: 0.365 ± 0.023
[2]; [9]
  protein stability index: 0.5263 ± 0.0018

## CMILVACFYLPS
[1]
  protein stability index: 0.321 ± 0.004
[2]; [3]
  protein stability index: 0.285 ± 0.033
[2]; [4]
  protein stability index: 0.441 ± 0.061
[2]; [5]
  protein stability index: 0.29 ± 0.024
[2]; [6]
  protein stability index: 0.455 ± 0.017
[2]; [7]
  protein stability index: 0.248 ± 0.0063
[2]; [8]
  protein stability index: 0.294 ± 0.017
[2]; [9]
  protein stability index: 0.428 ± 0.01

## CMYTILRHKINN
[1]
  protein stability index: 0.296 ± 0.054
[2]; [3]
  protein stability index: 0.628 ± 0.047
[2]; [4]
  protein stability index: 0.621 ± 0.075
[2]; [5]
  protein stability index: 0.649 ± 0.024
[2]; [6]
  protein stability index: 0.763 ± 0.023
[2]; [7]
  protein stability index: 0.129 ± 0.036
[2]; [8]
  protein stability index: 0.147 ± 0.058
[2]; [9]
  protein stability index: 0.279 ± 0.029

## CPVSRHLLVLYW
[1]
  protein stability index: 0.432 ± 0.029
[2]; [3]
  protein stability index: 0.413 ± 0.0094
[2]; [4]
  protein stability index: 0.4424 ± 0.0029
[2]; [5]
  protein stability index: 0.345 ± 0.029
[2]; [6]
  protein stability index: 0.4933 ± 0.0031
[2]; [7]
  protein stability index: 0.402 ± 0.017
[2]; [8]
  protein stability index: 0.331 ± 0.019
[2]; [9]
  protein stability index: 0.47 ± 0.012
